Results on ten molecules are retold here after patent publication US20220195012A1.

Some results are limits rather than exact numbers.

Holding throughout (assay): cell-based or functional assay
The target in test [1] is AP C3-convertase (C3bBb) (UniProt P01024).
Substrate in test [2]: CP C3-convertase (C4b2a) (UniProt P0C0L4)
Test [3] concerns the target C3b (UniProt P01024).
In test [4] the target is C4b (UniProt P0C0L4).
C4b, sequence (P0C0L4 757-1446 limits assumed, chain 1 of 3): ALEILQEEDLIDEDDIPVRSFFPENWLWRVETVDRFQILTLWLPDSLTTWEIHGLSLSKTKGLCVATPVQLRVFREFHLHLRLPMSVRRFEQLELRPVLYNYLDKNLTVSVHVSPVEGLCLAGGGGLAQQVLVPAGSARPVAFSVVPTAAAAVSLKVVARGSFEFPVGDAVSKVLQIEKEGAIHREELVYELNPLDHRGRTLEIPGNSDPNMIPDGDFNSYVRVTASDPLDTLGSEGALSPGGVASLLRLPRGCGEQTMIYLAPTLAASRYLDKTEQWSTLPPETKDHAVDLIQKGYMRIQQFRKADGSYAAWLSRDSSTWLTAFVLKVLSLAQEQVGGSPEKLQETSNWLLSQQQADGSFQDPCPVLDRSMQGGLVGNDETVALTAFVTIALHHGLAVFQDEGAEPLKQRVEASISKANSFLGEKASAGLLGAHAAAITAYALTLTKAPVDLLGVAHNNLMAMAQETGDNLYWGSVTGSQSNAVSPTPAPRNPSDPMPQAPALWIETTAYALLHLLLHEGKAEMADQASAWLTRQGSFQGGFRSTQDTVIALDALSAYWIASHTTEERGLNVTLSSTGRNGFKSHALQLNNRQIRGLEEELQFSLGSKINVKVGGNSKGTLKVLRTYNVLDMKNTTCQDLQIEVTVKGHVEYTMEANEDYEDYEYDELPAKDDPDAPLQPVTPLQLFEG
C4b, sequence (P0C0L4 20-675 limits assumed, chain 2 of 3): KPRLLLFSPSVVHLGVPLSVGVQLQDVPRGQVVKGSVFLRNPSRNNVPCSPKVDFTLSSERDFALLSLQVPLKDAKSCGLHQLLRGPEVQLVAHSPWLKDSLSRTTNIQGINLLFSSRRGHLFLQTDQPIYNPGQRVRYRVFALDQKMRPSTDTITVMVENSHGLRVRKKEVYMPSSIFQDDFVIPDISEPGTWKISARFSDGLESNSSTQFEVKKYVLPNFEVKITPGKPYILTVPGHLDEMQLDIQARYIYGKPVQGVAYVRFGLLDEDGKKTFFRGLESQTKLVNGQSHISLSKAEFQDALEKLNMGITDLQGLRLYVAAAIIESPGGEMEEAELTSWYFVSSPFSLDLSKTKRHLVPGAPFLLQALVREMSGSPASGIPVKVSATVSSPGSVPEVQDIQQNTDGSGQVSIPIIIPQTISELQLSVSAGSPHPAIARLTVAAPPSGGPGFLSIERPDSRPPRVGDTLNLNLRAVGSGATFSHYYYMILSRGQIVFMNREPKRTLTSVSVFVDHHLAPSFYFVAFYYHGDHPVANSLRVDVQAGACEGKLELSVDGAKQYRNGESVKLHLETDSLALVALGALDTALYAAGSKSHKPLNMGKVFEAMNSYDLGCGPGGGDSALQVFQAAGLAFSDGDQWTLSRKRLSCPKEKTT
C4b, sequence (P0C0L4 1454-1744 limits assumed, chain 3 of 3): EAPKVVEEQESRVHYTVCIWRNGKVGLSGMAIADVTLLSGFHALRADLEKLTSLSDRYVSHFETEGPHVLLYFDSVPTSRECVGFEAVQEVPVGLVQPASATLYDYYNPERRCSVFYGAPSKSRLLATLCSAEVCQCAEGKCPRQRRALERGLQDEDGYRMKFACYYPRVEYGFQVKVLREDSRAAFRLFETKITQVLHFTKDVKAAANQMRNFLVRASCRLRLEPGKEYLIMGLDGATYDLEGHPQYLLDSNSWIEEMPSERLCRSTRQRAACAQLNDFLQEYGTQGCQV

CP C3-convertase (C4b2a), sequence (P0C0L4 757-1446 limits assumed, chain 1 of 4): as the sequence (P0C0L4 757-1446 limits assumed, chain 1 of 3) above
CP C3-convertase (C4b2a), sequence (P0C0L4 20-675 limits assumed, chain 2 of 4): as the sequence (P0C0L4 20-675 limits assumed, chain 2 of 3) above
CP C3-convertase (C4b2a), sequence (P0C0L4 1454-1744 limits assumed, chain 3 of 4): as the sequence (P0C0L4 1454-1744 limits assumed, chain 3 of 3) above
CP C3-convertase (C4b2a), sequence (P06681 244-752 limits assumed, chain 4 of 4, further chain): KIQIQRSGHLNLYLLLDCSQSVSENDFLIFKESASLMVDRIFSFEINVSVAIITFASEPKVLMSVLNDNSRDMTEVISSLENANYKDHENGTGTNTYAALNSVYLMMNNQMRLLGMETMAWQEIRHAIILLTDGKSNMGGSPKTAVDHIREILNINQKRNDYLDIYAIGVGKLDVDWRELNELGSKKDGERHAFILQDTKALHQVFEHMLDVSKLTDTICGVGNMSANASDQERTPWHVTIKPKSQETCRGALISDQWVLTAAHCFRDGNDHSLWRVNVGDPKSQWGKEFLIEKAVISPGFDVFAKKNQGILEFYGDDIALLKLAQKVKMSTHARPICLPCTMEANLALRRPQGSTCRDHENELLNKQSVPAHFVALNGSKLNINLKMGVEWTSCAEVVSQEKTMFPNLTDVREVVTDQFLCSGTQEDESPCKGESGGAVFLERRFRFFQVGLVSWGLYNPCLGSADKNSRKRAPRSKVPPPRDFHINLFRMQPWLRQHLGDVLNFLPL
C3b, sequence (P01024 23-667 limits assumed, chain 1 of 2): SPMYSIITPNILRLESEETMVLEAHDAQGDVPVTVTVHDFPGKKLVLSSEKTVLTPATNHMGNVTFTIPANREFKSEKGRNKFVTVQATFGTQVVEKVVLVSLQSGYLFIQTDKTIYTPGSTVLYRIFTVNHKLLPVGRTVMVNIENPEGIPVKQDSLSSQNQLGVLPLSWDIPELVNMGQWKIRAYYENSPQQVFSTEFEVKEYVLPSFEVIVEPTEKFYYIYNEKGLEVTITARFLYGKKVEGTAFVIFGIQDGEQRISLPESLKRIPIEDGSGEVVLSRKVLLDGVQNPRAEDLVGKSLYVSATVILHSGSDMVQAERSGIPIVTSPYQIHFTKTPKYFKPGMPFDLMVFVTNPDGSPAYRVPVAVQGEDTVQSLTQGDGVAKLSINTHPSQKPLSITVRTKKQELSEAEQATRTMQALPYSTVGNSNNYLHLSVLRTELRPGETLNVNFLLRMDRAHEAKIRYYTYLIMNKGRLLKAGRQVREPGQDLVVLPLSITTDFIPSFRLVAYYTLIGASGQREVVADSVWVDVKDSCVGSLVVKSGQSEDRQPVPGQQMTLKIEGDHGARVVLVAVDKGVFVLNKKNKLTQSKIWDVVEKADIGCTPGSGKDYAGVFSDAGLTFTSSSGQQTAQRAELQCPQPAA
C3b, sequence (P01024 749-1663 limits assumed, chain 2 of 2): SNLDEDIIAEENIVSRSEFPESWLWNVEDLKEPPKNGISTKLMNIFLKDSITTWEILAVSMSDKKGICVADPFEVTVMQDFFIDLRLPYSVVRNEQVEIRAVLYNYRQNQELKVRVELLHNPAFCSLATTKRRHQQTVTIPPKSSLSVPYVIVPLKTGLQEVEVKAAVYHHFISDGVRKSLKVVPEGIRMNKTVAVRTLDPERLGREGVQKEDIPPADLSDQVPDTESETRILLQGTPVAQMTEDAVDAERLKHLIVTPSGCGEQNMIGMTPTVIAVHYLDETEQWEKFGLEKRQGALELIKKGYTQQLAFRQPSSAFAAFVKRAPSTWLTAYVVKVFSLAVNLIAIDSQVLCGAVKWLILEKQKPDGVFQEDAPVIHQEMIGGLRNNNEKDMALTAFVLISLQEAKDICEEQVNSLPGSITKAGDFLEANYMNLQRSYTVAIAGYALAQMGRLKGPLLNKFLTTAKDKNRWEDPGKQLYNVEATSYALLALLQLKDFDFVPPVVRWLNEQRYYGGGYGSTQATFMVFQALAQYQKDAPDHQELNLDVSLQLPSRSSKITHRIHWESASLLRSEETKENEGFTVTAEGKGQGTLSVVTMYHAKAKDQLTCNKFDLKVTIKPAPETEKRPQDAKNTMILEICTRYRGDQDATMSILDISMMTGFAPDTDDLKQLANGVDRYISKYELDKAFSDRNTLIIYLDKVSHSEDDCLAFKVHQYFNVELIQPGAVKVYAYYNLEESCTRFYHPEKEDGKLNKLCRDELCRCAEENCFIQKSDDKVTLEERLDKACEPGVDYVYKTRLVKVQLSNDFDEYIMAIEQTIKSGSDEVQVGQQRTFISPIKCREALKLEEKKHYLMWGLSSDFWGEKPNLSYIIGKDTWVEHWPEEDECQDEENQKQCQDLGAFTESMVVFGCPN
AP C3-convertase (C3bBb), sequence (P01024 23-667 limits assumed, chain 1 of 3): as the sequence (P01024 23-667 limits assumed, chain 1 of 2) above
AP C3-convertase (C3bBb), sequence (P01024 749-1663 limits assumed, chain 2 of 3): as the sequence (P01024 749-1663 limits assumed, chain 2 of 2) above
AP C3-convertase (C3bBb), sequence (P00751 260-764 limits assumed, chain 3 of 3, further chain): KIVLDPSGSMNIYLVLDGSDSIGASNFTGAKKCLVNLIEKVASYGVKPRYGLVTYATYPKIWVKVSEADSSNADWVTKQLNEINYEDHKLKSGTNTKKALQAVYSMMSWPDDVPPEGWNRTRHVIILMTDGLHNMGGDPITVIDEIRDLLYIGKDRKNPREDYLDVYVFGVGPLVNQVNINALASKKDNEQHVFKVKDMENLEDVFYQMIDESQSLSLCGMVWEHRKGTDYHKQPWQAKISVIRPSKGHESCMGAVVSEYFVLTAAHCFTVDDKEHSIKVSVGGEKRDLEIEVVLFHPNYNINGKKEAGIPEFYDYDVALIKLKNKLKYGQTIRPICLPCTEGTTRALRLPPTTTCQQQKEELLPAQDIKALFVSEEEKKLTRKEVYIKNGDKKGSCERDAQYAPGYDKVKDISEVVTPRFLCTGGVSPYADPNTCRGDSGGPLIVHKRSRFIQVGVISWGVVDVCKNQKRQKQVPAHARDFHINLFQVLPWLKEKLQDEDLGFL

B1: D2M2-4 (Tetra) (protein)
chain: CEVPTRLNSASLKQPYITQNYFPVGTVVEYECRPGYRRQPSLSPKLTCLQNLKWSTAVEFCKKKSCPNIRDPLNGQAVPANGTYEFGYQMHFICNEGYYLAGEEILYCELKGSVAIWSGKPPICEKVKCTPPPKIKNGKHTFSEVEVFEYLDAVTYSCDPAPGPDPFSLIGESTIYCGDNSVWSRAAPECKVVKCRFPVVENGKQISGFGKKFYYKATVMFECDKGFYLDGSDTIVCDSNSTWDPPVPKCLKVL
For the molecule B1, in test [1], the AP-DAA, fold increase compared to D2M2-4 is 12.5 fold and the AP-DAA, fold less compared to DAF worked out at 138 fold.

B2: D2D3M3M4 (L205K) (protein)
chain: CEVPTRLNSASLKQPYITQNYFPVGTVVEYECRPGYRREPSLSPKLTCLQNLKWSTAVEFCKKKSCPNPGEIRNGQIDVPGGILFGATISFSCNTGYKLFGSTSSFCKISGSSVQWSDPLPECREIYCTPPPKIKNGKHTFSEVEVFEYLDAVTYSCDPAPGPDPFSLIGESTIYCGDNSVWSRAAPECKVVKCRFPVVENGKQISGFGKKFYYKATVMFECDKGFYLDGSDTIVCDSNSTWDPPVPKCLKVL
In the case of B2, in test [2], the CP-DAA IC50 turned out to be 9.2 µM and the Relative CP-DAA turned out to be 1.7. In addition, in test [3], the C3b CFA: Time (min.) for 50% cleavage of C3B α′-chain amounted to 104 min and the Relative C3b CFA is 0.8. Besides, in test [1], the AP-DAA IC50 is more than 0.01 µM and the Relative AP-DAA worked out at 0.2. Also, in test [4], the C4b CFA: Time (min.) for 50% cleavage of C4B α′-chain turned out to be 433 min and the Relative C4b CFA amounted to 1.07.

B3: D2D3M3M4 (Multi-1) (protein)
chain: CEVPTRLNSASLKQPYITQNYFPVGTVVEYECRPGYRREPSLSPKLTCLQNLKWSTAVEFCKKKSCPNPGEIRNGQIDVPGGILFGATISFSCNTGYKLFGSTSSFCLISGSSVQWSDPLPICEKVLCTPPPKIKNGKHTFSEVEVFEYLDAVTYSCDPAPGPDPFSLIGESTIYCGDNSVWSRAAPECKVVKCRFPVVENGKQISGFGKKFYYKATVMFECDKGFYLDGSDTIVCDSNSTWDPPVPKCLKVL
Consider B3, for which, in test [2], the CP-DAA IC50 turned out to be 22.6 µM and the Relative CP-DAA is 0.7. Moreover, in test [3], the C3b CFA: Time (min.) for 50% cleavage of C3B α′-chain came to 27.3 min and the Relative C3b CFA is 3. In test [1], the AP-DAA IC50 worked out at 0.0019 µM and the Relative AP-DAA amounted to 1.1. In test [4], this molecule returned a C4b CFA: Time (min.) for 50% cleavage of C4B α′-chain of 493 min and a Relative C4b CFA of 1.07.

B4: D2D3M3M4 (T200Y) (protein)
chain: CEVPTRLNSASLKQPYITQNYFPVGTVVEYECRPGYRREPSLSPKLTCLQNLKWSTAVEFCKKKSCPNPGEIRNGQIDVPGGILFGATISFSCNTGYKLFGSYSSFCLISGSSVQWSDPLPECREIYCTPPPKIKNGKHTFSEVEVFEYLDAVTYSCDPAPGPDPFSLIGESTIYCGDNSVWSRAAPECKVVKCRFPVVENGKQISGFGKKFYYKATVMFECDKGFYLDGSDTIVCDSNSTWDPPVPKCLKVL
Regarding B4, in test [2], the CP-DAA IC50 stood at 17.7 µM and the Relative CP-DAA worked out at 0.9. In test [3], this molecule displayed a C3b CFA: Time (min.) for 50% cleavage of C3B α′-chain of 103 min and a Relative C3b CFA of 0.8. In test [1], this molecule displayed an AP-DAA IC50 of 0.0037 µM and a Relative AP-DAA of 0.56. In test [4], this molecule showed a C4b CFA: Time (min.) for 50% cleavage of C4B α′-chain of 513 min and a Relative C4b CFA of 0.9.

B5: D2D3M3M4 (K195Y) (protein)
chain: CEVPTRLNSASLKQPYITQNYFPVGTVVEYECRPGYRREPSLSPKLTCLQNLKWSTAVEFCKKKSCPNPGEIRNGQIDVPGGILFGATISFSCNTGYYLFGSTSSFCLISGSSVQWSDPLPECREIYCTPPPKIKNGKHTFSEVEVFEYLDAVTYSCDPAPGPDPFSLIGESTIYCGDNSVWSRAAPECKVVKCRFPVVENGKQISGFGKKFYYKATVMFECDKGFYLDGSDTIVCDSNSTWDPPVPKCLKVL
Consider B5, for which, in test [2], the CP-DAA IC50 was more than 100 µM and the Relative CP-DAA was found to be 6.2. In test [1], the AP-DAA IC50 was more than 0.01 µM and the Relative AP-DAA was 0.2. In test [4], the C4b CFA: Time (min.) for 50% cleavage of C4B α′-chain was more than 540 min and the Relative C4b CFA is less than 0.85.

B6: D2D3M3M4 (F197I) (protein)
chain: CEVPTRLNSASLKQPYITQNYFPVGTVVEYECRPGYRREPSLSPKLTCLQNLKWSTAVEFCKKKSCPNPGEIRNGQIDVPGGILFGATISFSCNTGYKLIGSTSSFCLISGSSVQWSDPLPECREIYCTPPPKIKNGKHTFSEVEVFEYLDAVTYSCDPAPGPDPFSLIGESTIYCGDNSVWSRAAPECKVVKCRFPVVENGKQISGFGKKFYYKATVMFECDKGFYLDGSDTIVCDSNSTWDPPVPKCLKVL
On to B6, for which, in test [2], the CP-DAA IC50 amounted to 30.7 µM and the Relative CP-DAA amounted to 0.5. Further, in test [3], the C3b CFA: Time (min.) for 50% cleavage of C3B α′-chain turned out to be 49.8 min and the Relative C3b CFA stood at 1.7. In test [1], this molecule showed an AP-DAA IC50 of 0.0044 µM and a Relative AP-DAA of 0.3. In addition, in test [4], the C4b CFA: Time (min.) for 50% cleavage of C4B α′-chain turned out to be 96.7 min and the Relative C4b CFA was found to be 7.

B7: D2D3M3M4 (Multi-5) or DCP (decay-cofactor protein) (protein)
chain: CEVPTRLNSASLKQPYITQNYFPVGTVVEYECRPGYRREPSLSPKLTCLQNLKWSTAVEFCKKKSCPNPGEIRNGQIDVPGGILFGATISFSCNTGYKLIGSTSSFCLISGSSVQWSDKLPICEKVLCTPPPKIKNGKHTFSEVEVFEYLDAVTYSCDPAPGPDPFSLIGESTIYCGDNSVWSRAAPECKVVKCRFPVVENGKQISGFGKKFYYKATVMFECDKGFYLDGSDTIVCDSNSTWDPPVPKCLKVL
For B7, in test [2], the CP-DAA IC50 worked out at 12.7 µM and the Relative CP-DAA amounted to 1.3. In test [3], the C3b CFA: Time (min.) for 50% cleavage of C3B α′-chain was 3.3 min and the Relative C3b CFA came to 1.5. In test [1], this molecule displayed an AP-DAA IC50 of 0.0024 µM and a Relative AP-DAA of 1.3. In test [4], the C4b CFA: Time (min.) for 50% cleavage of C4B α′-chain was determined as 3.1 min and the Relative C4b CFA turned out to be 3.

B8: D2D3M3M4 (S199K) (protein)
chain: CEVPTRLNSASLKQPYITQNYFPVGTVVEYECRPGYRREPSLSPKLTCLQNLKWSTAVEFCKKKSCPNPGEIRNGQIDVPGGILFGATISFSCNTGYKLFGKTSSFCLISGSSVQWSDPLPECREIYCTPPPKIKNGKHTFSEVEVFEYLDAVTYSCDPAPGPDPFSLIGESTIYCGDNSVWSRAAPECKVVKCRFPVVENGKQISGFGKKFYYKATVMFECDKGFYLDGSDTIVCDSNSTWDPPVPKCLKVL
As to B8, in test [2], the CP-DAA IC50 turned out to be 23.7 µM and the Relative CP-DAA worked out at 0.7. In test [3], this molecule yielded a C3b CFA: Time (min.) for 50% cleavage of C3B α′-chain of 18.9 min and a Relative C3b CFA of 4.4. In addition, in test [1], the AP-DAA IC50 is 0.0065 µM and the Relative AP-DAA came to 0.3. In test [4], this molecule came in with a C4b CFA: Time (min.) for 50% cleavage of C4B α′-chain of 181 min and a Relative C4b CFA of 2.5.

B9: D2D3M3M4 (P216K) (protein)
chain: CEVPTRLNSASLKQPYITQNYFPVGTVVEYECRPGYRREPSLSPKLTCLQNLKWSTAVEFCKKKSCPNPGEIRNGQIDVPGGILFGATISFSCNTGYKLFGSTSSFCLISGSSVQWSDKLPECREIYCTPPPKIKNGKHTFSEVEVFEYLDAVTYSCDPAPGPDPFSLIGESTIYCGDNSVWSRAAPECKVVKCRFPVVENGKQISGFGKKFYYKATVMFECDKGFYLDGSDTIVCDSNSTWDPPVPKCLKVL
Take B9: in test [2], the CP-DAA IC50 came to 21 µM and the Relative CP-DAA came to 0.75. In test [3], this molecule yielded a C3b CFA: Time (min.) for 50% cleavage of C3B α′-chain of 30.1 min and a Relative C3b CFA of 2.7. In test [1], the AP-DAA IC50 is 0.0034 µM and the Relative AP-DAA is 0.6. In test [4], this molecule gave a C4b CFA: Time (min.) for 50% cleavage of C4B α′-chain of 93.3 min and a Relative C4b CFA of 5.

B10: D2D3M3M4 (T192E) (protein)
chain: CEVPTRLNSASLKQPYITQNYFPVGTVVEYECRPGYRREPSLSPKLTCLQNLKWSTAVEFCKKKSCPNPGEIRNGQIDVPGGILFGATISFSCNEGYKLFGSTSSFCLISGSSVQWSDPLPECREIYCTPPPKIKNGKHTFSEVEVFEYLDAVTYSCDPAPGPDPFSLIGESTIYCGDNSVWSRAAPECKVVKCRFPVVENGKQISGFGKKFYYKATVMFECDKGFYLDGSDTIVCDSNSTWDPPVPKCLKVL
For the molecule B10, in test [2], the CP-DAA IC50 came out at 15.5 µM and the Relative CP-DAA was found to be 1. Besides, in test [3], the C3b CFA: Time (min.) for 50% cleavage of C3B α′-chain turned out to be 74.3 min and the Relative C3b CFA was found to be 1.1. In test [1], this molecule came in with an AP-DAA IC50 of 0.0025 µM and a Relative AP-DAA of 0.9. In test [4], this molecule yielded a C4b CFA: Time (min.) for 50% cleavage of C4B α′-chain of 268 min and a Relative C4b CFA of 8.7.
